Data on 1 molecule can be found in PMC8051608, “Overexpression of GmMYB14 improves high‐density yield and drought tolerance of soybean through regulating plant architecture mediated by the brassinosteroid pathway”.

This data set concerns the target T1, GmMYB14 (Glycine max cv. Tianlong No. 1, UniProt K7MYP5 1-291).
T1 sequence: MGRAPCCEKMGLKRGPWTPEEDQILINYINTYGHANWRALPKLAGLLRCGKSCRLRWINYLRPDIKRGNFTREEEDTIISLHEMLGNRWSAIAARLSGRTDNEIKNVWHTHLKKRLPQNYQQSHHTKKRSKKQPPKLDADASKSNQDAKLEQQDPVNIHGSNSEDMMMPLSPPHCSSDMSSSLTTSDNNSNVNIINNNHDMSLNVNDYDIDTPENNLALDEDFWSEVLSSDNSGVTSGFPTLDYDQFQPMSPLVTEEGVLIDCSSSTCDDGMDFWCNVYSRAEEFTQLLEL
Briefly: EMSA; 100x cold probe competition tested; EMSA Kit (Thermo Fisher), non-denaturing 6% polyacrylamide gel, streptavidin-HRP/ECL detection; buffer, salt, pH and temperature not stated. To be noted: protein: recombinant; tags: His (pCzn1-His vector); label: biotin; annealed complementary oligos. On the technique in general: In EMSA bound probe runs differently from free probe, usually more slowly.

B1: GmBEN1 promoter AC element 1 probe (30 bp) (dsDNA)
DNA 1: TAATACACCAAGCCACCTACCTTGTCTCTTT
DNA 2: AAAGAGACAAGGTAGGTGGCTTGGTGTATTA
Take B1: the binding result was “binds”.
